Reference: patent US20190359693A1
pKd: −log10 of the molar value.

Legend:
[1] = target: hemagglutinin (HA) of influenza A/Victoria/210/09 (H3N2) (influenza A virus); experiment: cell-based or functional assay
[2] = target: hemagglutinin (HA) of influenza A/Indonesia/5/05 (H5N1) (influenza A virus); experiment: cell-based or functional assay
[3] = target: hemagglutinin (HA) of influenza A/Christchurch/16/10 (H1N1) (influenza A virus); experiment: cell-based or functional assay
[4] = target: hemagglutinin (HA) of influenza A/PR8 H5N1 HK97 (H5N1) (influenza A virus); experiment: cell-based or functional assay
[5] = target: hemagglutinin (HA) of influenza A/Vietnam/1194/04 (H5N1) (influenza A virus); experiment: cell-based or functional assay
[6] = target: hemagglutinin (HA) of influenza B/Brisbane/60/08 (Victoria) (influenza B virus); experiment: cell-based or functional assay
[7] = target: hemagglutinin (HA) of influenza A/AnnArbor/23/57 (H2N2) (influenza A virus); experiment: cell-based or functional assay
[8] = target: hemagglutinin (HA) of influenza A/Brisbane/10/07 (H3N2) (influenza A virus); experiment: cell-based or functional assay
[9] = target: hemagglutinin (HA) of influenza A/Guiyang/1/57 (H2N2) (influenza A virus); experiment: cell-based or functional assay
[10] = target: hemagglutinin (HA) of influenza A/Aichi/2/68 (H3N2) (influenza A virus) (UniProt P03437); experiment: cell-based or functional assay
[11] = target: hemagglutinin (HA) of influenza A/PR8 H7N7-NY (H7N7) (influenza A virus); experiment: cell-based or functional assay
[12] = target: hemagglutinin (HA) of influenza A/Johannesburg/33/94 (H3N2) (influenza A virus); experiment: cell-based or functional assay
[13] = target: hemagglutinin (HA) of influenza A/Eurasian Wigeon/MPH571/08 (H8N4) (influenza A virus); experiment: cell-based or functional assay
[14] = target: hemagglutinin (HA) of influenza A/Jiangxi/346/2013 (H10N8) (influenza A virus); experiment: cell-based or functional assay
[15] = target: hemagglutinin (HA) of influenza A/Eurasian Wigeon/MPG1884/09 (H6N1) (influenza A virus); experiment: cell-based or functional assay
[16] = target: hemagglutinin (HA) of influenza B/Malaysia/2506/04 (Victoria) (influenza B virus); experiment: cell-based or functional assay
[17] = target: hemagglutinin (HA) of influenza A/Ck/HK/SSP176/09 (H9N2) (influenza A virus); experiment: cell-based or functional assay
[18] = target: hemagglutinin (HA) of influenza A/Common Teal/MPF139/07 (H7N7) (influenza A virus); experiment: cell-based or functional assay
[19] = target: hemagglutinin (HA) of influenza A/Mallard/Astrakhan/263/1982 (H14N5) (influenza A virus); experiment: cell-based or functional assay
[20] = target: hemagglutinin (HA) of influenza A/Shanghai/2/13 (H7N9) (influenza A virus); experiment: cell-based or functional assay
[21] = target: hemagglutinin (HA) of influenza B/Massachusetts/02/12 (Yamagata) (influenza B virus); experiment: cell-based or functional assay
[22] = target: hemagglutinin (HA) of influenza A/Eurasian Wigeon/MPF461/07 (H5N2) (influenza A virus); experiment: cell-based or functional assay
[23] = target: hemagglutinin (HA) of influenza A/Eurasian Wigeon/MPD411/07 (H6N8) (influenza A virus); experiment: cell-based or functional assay
[24] = target: hemagglutinin (HA) of influenza A/Panama/2007/99 (H3N2) (influenza A virus); experiment: cell-based or functional assay
[25] = target: hemagglutinin (HA) of influenza A/Mississippi/03/01 274H (H1N1) (influenza A virus); experiment: cell-based or functional assay
[26] = target: hemagglutinin (HA) of influenza A/Env/HK/MPU3156/05 (H1N2) (influenza A virus); experiment: cell-based or functional assay
[27] = target: hemagglutinin (HA) of influenza A/Solomon Islands/3/2006 (IVR 145) (H1N1) (influenza A virus); experiment: cell-based or functional assay
[28] = target: hemagglutinin (HA) of influenza A/Brisbane/59/07 (H1N1) (influenza A virus); experiment: cell-based or functional assay
[29] = target: hemagglutinin (HA) of influenza A/HK/1174/99 (H3N2) (influenza A virus); experiment: cell-based or functional assay
[30] = target: hemagglutinin (HA) of influenza A/Northern Shoveler/MPE2531/08 (H10N9) (influenza A virus); experiment: cell-based or functional assay
[31] = target: hemagglutinin (HA) of influenza A/WF/HK/MPA892/06 (H4) (influenza A virus); experiment: cell-based or functional assay
[32] = target: hemagglutinin (HA) of influenza A/WSN/33 (H1N1) (influenza A virus) (UniProt P03454); experiment: cell-based or functional assay
[33] = target: hemagglutinin (HA) of influenza A/Northern Pintail/MPC2085/07 (H11N9) (influenza A virus); experiment: cell-based or functional assay
[34] = target: hemagglutinin (HA) of influenza A/Anhui/1/13 (H7N9) (influenza A virus); experiment: cell-based or functional assay
[35] = target: hemagglutinin (HA) of influenza A/Chick/Germany/N/49 (H10N7) (influenza A virus); experiment: cell-based or functional assay
[36] = target: hemagglutinin (HA) of influenza A/Perth/16/09 (H3N2) (influenza A virus); experiment: cell-based or functional assay
[37] = target: recombinant HA of H7N9 A/Hangzhou/1/2013 (influenza A virus); experiment: biolayer interferometry (Octet), steady-state fit, geometric mean, pH 7.4
[38] = target: recombinant HA of H1N1 A/Brisbane/59/07 (influenza A virus); experiment: as above
[39] = target: recombinant HA of H3N2 A/HK/1/68-MA (influenza A virus); experiment: as above
[40] = target: recombinant HA of H3N2 A/Wisconsin/67/05 (influenza A virus); experiment: as above
[41] = target: recombinant HA of H7N3 A/NIBRG/60 (A/mallard/NL/12/00) (influenza A virus); experiment: as above
[42] = target: recombinant HA of B/Brisbane/60/08 (Victoria) (influenza B virus); experiment: as above

Q: Which Average neutralization titers [1] does the source give for MD3606 (Fc fusion) here?
A: 6.5 nM

Q: And the Average neutralization titers [2]?
A: 11.5 nM

Q: And the Average neutralization titers [3]?
A: 1 nM

Q: And the Average neutralization titers [4]?
A: 6.5 nM

Q: What about the Average neutralization titers [5] of the same substance?
A: 5.7 nM

Q: What about the ADCC induction (EC50 grade, FcγRIIIa reporter bioassay) [6] of the same substance?
A: < 0.1 mg/L

Q: What about the Average neutralization titers [6] of the same substance?
A: 1 nM

Q: What about the Average neutralization titers [7] of the same substance?
A: 13.2 nM

Q: What about the Average neutralization titers [8] of the same substance?
A: 4.1 nM

Q: And the Average neutralization titers [9]?
A: 26.7 nM

Q: What about the Average neutralization titers [10] of the same substance?
A: 32.2 nM

Q: And the Average neutralization titers [11]?
A: 8.1 nM

Q: What about the Average neutralization titers [12] of the same substance?
A: 8.1 nM

Q: And the Average neutralization titers [13]?
A: 3.7 nM

Q: What about the Average neutralization titers [14] of the same substance?
A: 18.3 nM

Q: And the Average neutralization titers [15]?
A: 11.6 nM

Q: What about the Average neutralization titers [16] of the same substance?
A: 2.6 nM

Q: What about the Average neutralization titers [17] of the same substance?
A: 9 nM

Q: What about the Average neutralization titers [18] of the same substance?
A: 26.3 nM

Q: And the Average neutralization titers [19]?
A: 12.9 nM

Q: And the Average neutralization titers [20]?
A: 22.8 nM

Q: And the Average neutralization titers [21]?
A: 1 nM

Q: And the Average neutralization titers [22]?
A: 9.2 nM

Q: What about the Average neutralization titers [23] of the same substance?
A: 9.7 nM

Q: And the Average neutralization titers [24]?
A: 40.5 nM

Q: And the Average neutralization titers [25]?
A: 4.7 nM

Q: What about the Average neutralization titers [26] of the same substance?
A: 2.6 nM

Q: And the Average neutralization titers [27]?
A: 1.6 nM

Q: And the Average neutralization titers [28]?
A: 5.3 nM

Q: What about the Average neutralization titers [29] of the same substance?
A: 23 nM

Q: And the Average neutralization titers [30]?
A: 20.7 nM

Q: What about the Average neutralization titers [31] of the same substance?
A: 3 nM

Q: And the Average neutralization titers [32]?
A: 2 nM

Q: And the Average neutralization titers [33]?
A: 7.2 nM

Q: What about the Average neutralization titers [34] of the same substance?
A: 38.2 nM

Q: What about the Average neutralization titers [35] of the same substance?
A: 10.2 nM

Q: What about the Average neutralization titers [36] of the same substance?
A: 5.7 nM

Q: What about the pKd [37] of the same substance?
A: 8.92

Q: And the pKd [38]?
A: 8.66

Q: What about the pKd [39] of the same substance?
A: 8.85

Q: And the pKd [40]?
A: 9.22

Q: What about the pKd [41] of the same substance?
A: 8.96

Q: What about the pKd [42] of the same substance?
A: 8.42
